Residue numbers refer to the chain shown, from its start.

We go through nine molecules from patent US6465254, “Mutant loxP site and applications thereof” (Sumitomo Pharmaceuticals Company, Limited).

B1: mutant loxP #72 (dsDNA)
DNA 1: ATAACTTCGTATAATGTATCCTATACGAAGTTAT
DNA 2: ATAACTTCGTATAGGATACATTATACGAAGTTAT
B2: mutant loxP #73 (dsDNA)
DNA 1: B1 DNA 1 with C20T
DNA 2: B1 DNA 2 with G15A
B3: mutant loxP #81 (dsDNA)
DNA 1: B1 DNA 1 with C20G, C21T
DNA 2: B1 DNA 2 with G14A, G15C
B4: mutant loxP #6171 (dsDNA)
DNA 1: B1 DNA 1 with T19C, C20A
DNA 2: B1 DNA 2 with G15T, A16G
B5: mutant loxP #5171 (dsDNA)
DNA 1: B1 DNA 1 with A18G, C20A
DNA 2: B1 DNA 2 with G15T, T17C
B6: mutant loxP #4171 (dsDNA)
DNA 1: B1 DNA 1 with T17C, C20A
DNA 2: B1 DNA 2 with G15T, A18G
B7: mutant loxP #2271 (dsDNA)
DNA 1: B1 DNA 1 with T15A, C20A
DNA 2: B1 DNA 2 with G15T, A20T
B8: mutant loxP #4172 (dsDNA)
DNA 1: B1 DNA 1 with T17C
DNA 2: B1 DNA 2 with A18G
B9: mutant loxP #2372 (dsDNA)
DNA 1: B1 DNA 1 with T15G
DNA 2: B1 DNA 2 with A20C

In one series the target is T1, Cre recombinase (UniProt P06956 P06956:1-343). Nature of the series: self x self; intermediate 3. Conditions: tags: expressed from recombinant adenovirus AxCANCre in 293 cells. As to the method: Substrate DNA (1 μg) prepared in (3) and cell extract containing Cre (10 μl) prepared in (1) were incubated at 37° C. for 30 min in a 50 μl volume of buffer containing 50 mM Tris-HCl (pH 7.5)/10 mM MgCl2/1 mg/ml bovine serum albumin/1 mM phenylmethylsulfonyl fluoride (PMSF)/5 μg/ml aprotinin. After completion of the reaction, 45 μl of TE buffer (pH 8.0) and 5 μl of EDTA solution (pH 8.0) were added to the reaction mixture, extracted with phenol/chloroform and with chloroform, followed ethanol precipitation. The recovered DNA was dissolveld in 30 μl of TE buffer (pH 8.0) containing RNase A (20 μg/ml). Half volume thereof was digested with restriction enzyme BsaHI. The DNA bands detected by ethidium bromide (EtBr) staining after agarose gel electrophoresis, were analyzed.
T1 sequence (P06956 whole entry, one chain of several): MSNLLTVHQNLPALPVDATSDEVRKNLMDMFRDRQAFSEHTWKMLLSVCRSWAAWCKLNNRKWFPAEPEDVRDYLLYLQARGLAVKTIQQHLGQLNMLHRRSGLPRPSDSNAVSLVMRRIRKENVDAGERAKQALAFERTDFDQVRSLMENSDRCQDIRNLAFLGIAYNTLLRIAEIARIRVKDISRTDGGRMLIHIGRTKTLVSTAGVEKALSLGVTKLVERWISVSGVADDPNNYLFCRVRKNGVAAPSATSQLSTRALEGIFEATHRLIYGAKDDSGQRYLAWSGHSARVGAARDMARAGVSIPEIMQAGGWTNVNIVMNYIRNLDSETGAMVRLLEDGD
Before recombination mediated by Cre, restriction enzyme BsaHI digestion of linear substrate DNA (approx. 4.1 kb) generates four bands of 2.7 kb, 610 bp, 380 bp and 360 bp. On the other hand, as a result of recombination of substrate DNA mediated by Cre, a circular DNA of approx. 4.0 kb containing one mutant loxP, and a linear DNA of approx. 50 bp consisting of only mutant loxP, are produced. Digestion of these DNA with restriction enzyme BsaHI generates four bands of 2.7 kb, 920 bp, 380 bp and 50 bp (refer to FIG. 6).
Turning to B1, the activity came out at 7 grade 0-9 final product. Still for that read-out and setting: the value for B2 was 1 grade 0-9 final product; that for B3 was 3 grade 0-9 final product.

The target in a further series is T1, Cre recombinase. Nature of the series: self x self; intermediate 0. The following applies: tags: expressed from recombinant adenovirus AxCANCre in 293 cells.
B4: the activity came out at 6 grade 0-9 final product.

B5: the activity turned out to be 6 grade 0-9 final product. Still for that read-out and setting: the value for B6 was 4 grade 0-9 final product.

A further series deals with T1, Cre recombinase. Nature of the series: self x self; intermediate 2. The following applies: tags: expressed from recombinant adenovirus AxCANCre in 293 cells.
Consider B7, for which the activity worked out at 6 grade 0-9 final product.

Consider B8, for which the activity was 4 grade 0-9 final product. Consider B9, for which the activity is 0 grade 0-9 final product.
